We go through five proteins from patent publication US20230257727.

One data set has as its target T1, M15-LAAR.
T1 chain: LAAR

The target in data set [1] is Polypeptides with M15-L-labeled P1 residues A, I, L, M, Q, V.
In data set [2] the target is M15-L-P1-AR peptides with D or E in the P1 position.
The next data set deals with T2, M19-AAAR.
T2 chain: AAAR

Another data set addresses T3, M19-LAAR.
T3 chain: LAAR

The target of data set [3] is T4, Test peptide LMSHNARGAEDDVVRGGGGK linked to a DNA oligo.
T4 chain: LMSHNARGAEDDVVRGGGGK

Substitutions are numbered along the chain they refer to.

B1: M15-L_Z001 modified cleavase (Thermomonas hydrothermalis S46 DPP scaffold) (protein)
chain: MHKTRLVAALAAALATLAPAAWADEGMWVPQQLPEIAGALKKAGLKLDPKQLSDLTGDPMGAVVSLGGCTGSFVSPQGLVATNHHCAYGAIQLNSTPEKNLIKDGFNAPTQADELSAGPNARIYVLEGITDVTAQAKAAMAAAGNDPVARANALEAFEKKITSDCEAEPGYRCRVYSFMGGITYRLFKNLEIKDVRLVYAPPSSVGKFGGDIDMGMWPTHTGDFSFYRAYVGKDGKPAPYSKDNVPYRPKHWLKIADTPLGEGDFVMVAGYPGRTDRYALVAEFENTQNWLYPAISKAYKDQIALVEAAAKDNPEIAVKYAAALAGWNRTSKNFDGQLEGFKRNDVLAIKRREEAAVLEWLRARGKAGTPALEAHAALVKLVADTARTQERDLVLGSFNRTGIIGVAVNLYRLAIERQKPDAEREPGYQQRDLPVIEGSLKQMERRYVPAMDRQLRAYWLDRYVALPAAQHVAAVDAWLGGSDKAAAEAALARLDQSRLGSLEERLKWFNADRAAFEASTDPAIQYAVAVMPTLLAMEQQAKTRYGVALEARPRYLQAVVDYKKSKGQAVYPDANSTLRITYGHVKGYTGLNGKVYTPFTTLEEVAAKETGVEPFDNPKALLEAVAAKRYAGLADARLGTVPVNFLADLDITGGNSGSPVLDANGRLVGLAFAGTLESVASNWVFDPVLTRMISVDQRYMRWIMQEVMPAPQLLEELGVPPRQ
For the protein B1, the “cleavage efficiency, time course 5, 10, 20, 30 and 60 minutes” value with M15-LAAR is listed as “the M15-L_Z001 cleavase provided better specificity towards the M15-labeled polypeptide”. The cleavage entry in data set [1] is given as “provided 100% cleavage”.

B2: M15-L_Z002 modified cleavase (Thermomonas hydrothermalis S46 DPP scaffold) (protein)
chain: B1 chain
Take B2: the cleavage profile entry in data set [2] is “M15-L_Z002, having specificity towards D and E in the P1 position”.

B3: P1 cutter 1 (Thermomonas hydrothermalis S46 DPP scaffold) (protein)
chain: B1 chain with M214T, G215M, T219K, R329Y, A673D
Regarding B3, the “cleavage, product identified by LC-MS” value in the data set with M19-AAAR was “the observed mass of the cleaved product was 230.2 Da, which matched well with the expected mass for the M19-A (M+H) part (231.2 Da)”.

B4: M19_053 cleavase clone (Thermomonas hydrothermalis S46 DPP scaffold) (protein)
chain: B1 chain with R329P
B4: the “cleavage efficiency, time course 5, 10, 20, 30 and 60 minutes” value with M19-LAAR is listed as “the newly selected cleavase clone M19_053 provided better specificity towards the M19-labeled polypeptide”.

B5: Unmodified dipeptidyl aminopeptidase DAP BII (SEQ ID NO: 13) (protein)
chain: GEGMWVPQQLPEIAGPLKKAGLKLSPQQISDLTGDPMGAVVALGGCTASFVSPNGLVVTNHHCAYGAIQLNSTAENNLIKNGFNAPTTADEVSAGPNARVFVLDEITDVTKDAKAAIAAAGDDALARTKALEAFEKKLIADCEAEAGFRCRLYSFSGGNTYRLFKNLEIKDVRLAYAPPGSVGKFGGDIDNWMWPRHTGDFAFYRAYVGKDGKPAAFSKDNVPYQPKHWLKFADQPLGAGDFVMVAGYPGSTNRYALAAEFDNTAQWTYPTIARHYKNQIAMVEAAGKQNADIQVKYAATMAGWNNTSKNYDGQLEGFKRIDAAGQKLREEAAVLGWLKGQGAKGQPALDAHAKLLDLLEQSKATRDRDLTLALFNNTAMLGSATQLYRLSIEREKPNAERESGYQERDLPAIEGGLKQLERRYVAAMDRQLQEYWLNEYIKLPADQRVAAVDAWLGGNDAAAVKRALDRLAGTKLGSTEERLKWFAADRKAFEASNDPAIQYAVAVMPTLLKLEQERKTRAGENLAARPVYLQALADYKKSQGEFVYPDANLSLRITFGNVMGYAPKDGMEYTPFTTLEGVVAKETGQDPFDSPKALLDAVAAKRYGGLEDKRIGSVPVNYLSDLDITGGNSGSPVLDAHGKLVGLAFDGNWESVSSNWVFDPKMTRMIAVDGRYLRWIMQEVYPAPQLLKEMNVGK
As for B5, in data set [3], the “cleavage of a peptide-DNA fusion, gel bands at 0, 5, 30, 45, 60 min” value is recorded as “would continue gradually cleaving the polypeptide, creating multiple bands during the cleavage reaction (FIG. 10)”.
